This series in a line: self-splicing fitness, log relative to wild type (ln ratio); higher = more splicing; Tetrahymena group I intron in knt gene, E. coli kanamycin selection, DiMSum; sequences stand for … in CUCUCU…GGAGGGAAAAGUUAUCAGGCAUGCACCUGGUAGCUAGUCUUUAAACCAAUAGAUUGCAUCGGUUUAAAAGGCAAGACCGUCAAAUUGCGGGAAAGGGGUCAACAGCCGUUCAGUACCAAGUCUCAGGGGAAACUUUGAGAUGGCCUUGCAAAGGGUAUGGUAAUAAGCUGACGGACAUGGUCCUAACCACGCAGCCAAGUCCUAAGUCAACAGAUCUUCUGUUGAUAUGGAUGCAGUUCACAGACUAAAUGUCGGUCGGGGAAGAUGUAUUCUUCUCAUAAGAUAUAGUCGGACCUCUCCUUAAUGGGAGCUAGCGGAUGAAGUGAUGCAACACUGGAGCCGCUGGGAACUAAUUUGUAUGCGAAAGUAUAUUGAUUAGUUUUGGAGUACUCGUGGUCG
The procedure, abridged:
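Library with all eight P1ex-region intron nucleotides randomised, intron inside the knt kanamycin-resistance gene on pET-22b(+), in E. coli BL21(DE3). Cells grew overnight at 37°C or 30°C on LB agar with or without 25 μg/mL kanamycin (plus 100 μg/mL carbenicillin, 50 μM IPTG, 0.2% rhamnose), in six replicate transformations. Pooled colonies were amplicon-sequenced on Illumina HiSeq 2500. DiMSum fitness is the error-weighted combination of wild-type-normalised replicate fold changes, kanamycin versus none.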

± gives the uncertainty stated by the source.

For AGAAAGCAAUAUUACGCAAG, the “self-splicing fitness (ln)” value runs as follows: (30 °C) -1.66 ± 0.13; (37 °C) -1.32 ± 0.18.

In the case of AGACAGCAAUAUUACGGGAA, the “self-splicing fitness (ln)” value is -2.68 ± 0.18 (30 °C) and -1.38 ± 0.14 (37 °C).

Turning to AGUAAGCAAUAUUACGAGUU, the “self-splicing fitness (ln)” value was -2.53 ± 0.097 (30 °C) and -0.877 ± 0.1 (37 °C).

Take UACGAGCAAUAUUACGAAUG: the “self-splicing fitness (ln)” value by setting is: (30 °C) -2.56 ± 0.12; (37 °C) -1.68 ± 0.15.

Take UUCUAGCAAUAUUACGCCUA: the “self-splicing fitness (ln)” value (30 °C) was -1.94 ± 0.29 and the “self-splicing fitness (ln)” value (37 °C) is -0.0729 ± 0.19.

UCUUAGCAAUAUUACGCAGA: the “self-splicing fitness (ln)” value reads like this: (30 °C) -1.55 ± 0.46; (37 °C) -1.36 ± 0.29.

With AGUAAGCAAUAUUACGUGUU, the “self-splicing fitness (ln)” value (30 °C) was -3.49 ± 0.13 and the “self-splicing fitness (ln)” value (37 °C) is -1.99 ± 0.18.

With GGGUAGCAAUAUUACGUGAU, the “self-splicing fitness (ln)” value is, setting by setting: (30 °C) -2.64 ± 0.19; (37 °C) -0.239 ± 0.18.

Consider UGGUAGCAAUAUUACGUACG, for which the “self-splicing fitness (ln)” value (30 °C) is -1.02 ± 0.19 and the “self-splicing fitness (ln)” value (37 °C) is -0.203 ± 0.23.

As for CGAUAGCAAUAUUACGAGGC, the “self-splicing fitness (ln)” value was -3.66 ± 0.35 (30 °C) and -1.95 ± 0.48 (37 °C).

Turning to ACCUAGCAAUAUUACGAUUG, the “self-splicing fitness (ln)” value reads like this: (30 °C) -3.2 ± 0.21; (37 °C) -2.28 ± 0.25.

In the case of CCAAAGCAAUAUUACGAUAU, the “self-splicing fitness (ln)” value reads like this: (30 °C) -4.16 ± 0.15; (37 °C) -2.79 ± 0.13.

Regarding CCUCAGCAAUAUUACGAAAA, the “self-splicing fitness (ln)” value by setting is: (30 °C) -2.77 ± 0.22; (37 °C) -2.26 ± 0.33.

Regarding CUAAAGCAAUAUUACGGUUA, the “self-splicing fitness (ln)” value (30 °C) was -3.78 ± 0.33 and the “self-splicing fitness (ln)” value (37 °C) is -2.72 ± 0.25.

As for CCCAAGCAAUAUUACGGCAG, the “self-splicing fitness (ln)” value is -3.73 ± 0.17 (30 °C) and -1.65 ± 0.12 (37 °C).

As for CUCCAGCAAUAUUACGUCAC, the “self-splicing fitness (ln)” value (30 °C) was -3.88 ± 0.26 and the “self-splicing fitness (ln)” value (37 °C) was -2.69 ± 0.29.

With CUUGAGCAAUAUUACGCAUU, the “self-splicing fitness (ln)” value (37 °C) is -2.02 ± 0.35.

Regarding AAGUAGCAAUAUUACGUAGA, the “self-splicing fitness (ln)” value runs as follows: (30 °C) -3.01 ± 0.18; (37 °C) -1.45 ± 0.21.

On to GGCCAGCAAUAUUACGCGCU, for which the “self-splicing fitness (ln)” value (37 °C) is -1.76 ± 0.39.

On to AAAGAGCAAUAUUACGCGUA, for which the “self-splicing fitness (ln)” value is -1.96 ± 0.18 (30 °C) and -1.61 ± 0.16 (37 °C).

For GUAGAGCAAUAUUACGUGGU, the “self-splicing fitness (ln)” value was -3.09 ± 0.28 (30 °C) and -3.52 ± 0.3 (37 °C).

Take CUUGAGCAAUAUUACGCGCA: the “self-splicing fitness (ln)” value was -2.81 ± 0.27 (30 °C) and -2.23 ± 0.33 (37 °C).

Consider UUCGAGCAAUAUUACGACAG, for which the “self-splicing fitness (ln)” value by setting is: (30 °C) -2.81 ± 0.19; (37 °C) -1.5 ± 0.13.

AACAAGCAAUAUUACGAGAG: the “self-splicing fitness (ln)” value by setting is: (30 °C) -3.79 ± 0.22; (37 °C) -2.24 ± 0.14.
